The values that follow come from publication PMC7465815, “The CARF Protein MM_0565 Affects Transcription of the Casposon-Encoded cas1-solo Gene in Methanosarcina mazei Gö1” (Biomolecules, 2020).

For data set [1], the target named is T1, His6-MM_0565 (CARF-wHTH protein) (Methanosarcina mazei Gö1) (UniProt Q8PZC9).
T1 sequence: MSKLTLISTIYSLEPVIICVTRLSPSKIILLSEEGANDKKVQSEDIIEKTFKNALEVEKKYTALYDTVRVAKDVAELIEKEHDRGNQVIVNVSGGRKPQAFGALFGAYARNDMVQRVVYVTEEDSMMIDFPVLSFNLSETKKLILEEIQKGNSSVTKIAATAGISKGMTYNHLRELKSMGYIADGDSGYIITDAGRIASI
Put plainly: competition. As to conditions: MST: 25 nM labelled protein in His-tag buffer (250 mM NaH2PO4, 1.5 M NaCl, pH 8) + 1 mg/mL BSA, 0.05% Tween20, DNA from annealing buffer (50 mM TES/KOH pH 7.6 …).

Data set [2] deals with T1, His6-MM_0565 (CARF-wHTH protein) (Methanosarcina mazei Gö1). Briefly: EMSA. As to conditions: MST: 25 nM labelled protein in His-tag buffer (250 mM NaH2PO4, 1.5 M NaCl, pH 8) + 1 mg/mL BSA, 0.05% Tween20, DNA from annealing buffer (50 mM TES/KOH pH 7.6 …).
The target in data set [3] is T2, His6-MM_0565 (CARF-wHTH protein) (Methanosarcina mazei Gö1, UniProt Q8PZC9 1-200).
T2 sequence: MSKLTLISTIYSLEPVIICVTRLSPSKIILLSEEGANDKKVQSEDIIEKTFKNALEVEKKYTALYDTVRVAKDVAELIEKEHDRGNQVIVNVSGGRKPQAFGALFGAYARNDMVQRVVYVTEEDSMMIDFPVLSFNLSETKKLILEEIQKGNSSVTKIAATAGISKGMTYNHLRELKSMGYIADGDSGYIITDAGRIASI
Briefly: MST; MST: 25 nM labelled protein in His-tag buffer (250 mM NaH2PO4, 1.5 M NaCl, pH 8) + 1 mg/mL BSA, 0.05% Tween20, DNA from annealing buffer (50 mM TES/KOH pH 7.6). To be noted: protein: recombinant, tags: N-terminal His6 (pET28a), chain copies: 2.

Data set [4] deals with the molecule itself. Briefly: SEC; purified His6-MM_0565 on an ENrich SEC 650 column; 50 mM TES buffer pH 7.6, 300 mM KCl; 0.5 mL/min; calibrated with a gel-filtration mass standard. For orientation: SEC sorts molecules by how far they enter the pores of the column.
Data set [5] deals with the molecule itself. Briefly: SDS-PAGE and Western blot of cell extracts (dimer band kept under denaturing conditions); M. mazei cell extracts (750 µg), cells grown under standard conditions (38.5 mM NaCl) or with 500 mM NaCl; samples boiled 5 min at 95 °C, 12% SDS-PAGE; polyclonal antibodies against MM_0565. A general note: In western blotting, separated proteins are transferred to a membrane and probed.

Take “AGGGCAAAAATTTCCGTTATTTGGCCAGAAAAGGCCTGAAATGAGCCCTTTTTCAGGGCTAAAATTCTTGCTGGAAAATTATCAAACCCTTTATAAATACAAGAAAAACTTCTCATACGCAGATATTCCGGTAACAGCAATCTACGCATTTTCT (double strand) [leader I-B PCR fragment]”: the binding result in data set [1] and in data set [2] was “binds” each time. With “AGGGCAAAAATTTCCGTTATTTGGTCAGAAAAGGCCTGAAATGAGCCCTTTTTTGGGGCTAAAATTCTTGCTGGAAAATTATCAAACCCTTTATAAATACAAGAAAAAAAGGGTTTTTTTAGTGGTTTGGAAAC (double strand) [leader III-C PCR fragment]”, the binding entry in data set [2] is recorded as “binds”.

B1: conserved leader region 1 (5' fragment, 70 nt) (dsDNA)
DNA 1: TTTTTCTTGTATTTATAAAGGGTTTGATAATTTTCCAGCAAGAATTTTAGCCCCAAAAAAGGGCTCATTT
DNA 2: AAATGAGCCCTTTTTTGGGGCTAAAATTCTTGCTGGAAAATTATCAAACCCTTTATAAATACAAGAAAAA
Consider B1, for which the Kd in data set [3] (blunt) stood at 960 ± 350 nM.

B2: MM_3250 (cas1-solo operon) promoter (dsDNA)
DNA 1: CCGCTCTTACTTATGTACAGAATTGAGTATAACTTTAAGTATAAGTTTGATGTATATTTTGTATATAATT
DNA 2: AATTATATACAAAATATACATCAAACTTATACTTAAAGTTATACTCAATTCTGTACATAAGTAAGAGCGG
B2: the Kd in data set [3] (blunt) was determined as 1600 ± 400 nM.

B3: conserved leader region 2 (3' fragment) (dsDNA)
DNA 1: CAAGAATTTTAGCCCTGAAAAAGGGCTCATTTCAGGCCTTTTCTGGCCAAATAACGGAAATTTTTGCCCT
DNA 2: AGGGCAAAAATTTCCGTTATTTGGCCAGAAAAGGCCTGAAATGAGCCCTTTTTCAGGGCTAAAATTCTTG
B3: the binding result in data set [3] is “no binding”.

B4: MM_0565 promoter version 1 (wt) (dsDNA)
DNA 1: AACTAAATCCCTATATCGTAAAACATTTAACCAAACCCTACAATACATGACATCTAATGT
DNA 2: ACATTAGATGTCATGTATTGTAGGGTTTGGTTAAATGTTTTACGATATAGGGATTTAGTT
As for B4, in data set [3] (blunt), the Kd was determined as 285 ± 56 nM.

B5: His6-MM_0565 (CARF protein MM_0565 of Methanosarcina mazei Gö1 with N-terminal His6 tag) (natural protein, UniProt Q8PZC9 1-200, looked up)
chain: MSKLTLISTIYSLEPVIICVTRLSPSKIILLSEEGANDKKVQSEDIIEKTFKNALEVEKKYTALYDTVRVAKDVAELIEKEHDRGNQVIVNVSGGRKPQAFGALFGAYARNDMVQRVVYVTEEDSMMIDFPVLSFNLSETKKLILEEIQKGNSSVTKIAATAGISKGMTYNHLRELKSMGYIADGDSGYIITDAGRIASI
notes: MM_0565 gene product of Methanosarcina mazei Gö1; N-terminal CARF domain and C-terminal winged helix-turn-helix domain; gene PCR-amplified (0.6 kbp fragment) and cloned into pET28a(+); approximately 22 kDa; Homodimer by size-exclusion chromatography; also called purified MM_0565; His6-tagged MM_0565; source: E. coli BL21-CodonPlus-RIL (plasmid pRS923, pET28a), purified (Ni-NTA agarose); not …
As to B5, the “stoichiometry N” value in data set [4] was found to be 2.

B6: MM_0565, endogenous in Methanosarcina mazei Gö1 (natural protein, UniProt Q8PZC9 1-200, looked up)
chain: MSKLTLISTIYSLEPVIICVTRLSPSKIILLSEEGANDKKVQSEDIIEKTFKNALEVEKKYTALYDTVRVAKDVAELIEKEHDRGNQVIVNVSGGRKPQAFGALFGAYARNDMVQRVVYVTEEDSMMIDFPVLSFNLSETKKLILEEIQKGNSSVTKIAATAGISKGMTYNHLRELKSMGYIADGDSGYIITDAGRIASI
notes: MM_0565 gene product of Methanosarcina mazei Gö1, detected in cell extracts with polyclonal antibodies against MM_0565 as bands of 25 and 50 kDa; Both a monomer band and a dimer band were seen on the denaturing gel; also called dimeric MM_0565; source: endogenous, M. mazei Gö1 cell extracts
On to B6, for which the “stoichiometry N” value in data set [5] amounted to 2.

B7: cas8b promoter (CRISPR-Cas I-B operon) (dsDNA)
DNA 1: TCTATTTGCTTATTTTTATAATTATTTTTAGAAATGTATATATAATATGTTAACTATGAACCTTGATGGT
DNA 2: ACCATCAAGGTTCATAGTTAACATATTATATATACATTTCTAAAAATAATTATAAAAATAAGCAAATAGA
Consider B7, for which the binding result in data set [3] (blunt) is “no binding”.

Usually Kd stands for a measure of binding affinity in units of concentration. A word on the stoichiometry N: it is a count of units in the complex or per binding partner.
